In patent US20260167721A1 (ABLEXIS, published 2026) one finds Kd, koff and kon data, which are given here for three molecules.

What is called Kd is the free concentration of one partner at which half of the binding sites on the other are occupied at equilibrium, for simple one-to-one binding. As usually defined, the koff is a measure of how fast the partners let go of each other. As usually defined, the kon is the second-order rate constant of association.

The target of test [1] is T1, recombinant CD3 proteins (UniProt P07766 23-126).
T1 construct: elsewhere it uses human CD3 E/D and E/G heterodimers
T1 sequence (P07766 23-126): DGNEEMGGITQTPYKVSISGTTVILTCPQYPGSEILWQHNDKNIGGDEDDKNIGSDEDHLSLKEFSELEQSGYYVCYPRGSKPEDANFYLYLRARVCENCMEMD
Kind of test: Octet BLI, recombinant CD3; Full R^2 0.985.

Test [2] concerns the target T1, recombinant CD3 proteins. Kind of test: Octet BLI, recombinant CD3; Full R^2 0.557*.
For test [3], the target named is T1, recombinant CD3 proteins. Kind of test: Octet BLI, recombinant CD3; Full R^2 0.814*. In general terms: BLI is a label-free optical method that tracks binding on a fibre tip over time.

B1: CD3 × CD33-BspAb120 (bispecific antibody)
chain 1: NFMLTQPHSVSESPGKTVAISCTRSSGSIASNYVQWYQQRPGSSPTAVIYEDNQRPSGVPDRFSGSIDSSSNSAFLTISGLKTEDEADYYCQSYDSSNRVFGCGTKLTVLGGGGSGGGGSGGGGSGGGGSEVQLVESGGGLVKPGGSLRLSCAASGFTFSSYSMNWVRQAPGKCLEWVSSISRSSGYIFYADSVKGRFTISRDNAKNSLYLQMNSLRAEDTAVYYCVRERVGAGFDYWGQGTLVTVSSDKTHTCPPCPAPEFEGGPSVFLFPPKPKDTLMISRTPEVTCVVVDVSHEDPEVKFNWYVDGVEVHNAKTKPREEQYNSTYRVVSVLTVLHQDWLNGKEYKCKVSNKALPASIEKTISKAKGQPREPQVYTLPPCREEMTKNQVSLWCLVKGFYPSDIAVEWESNGQPENNYKTTPPVLDSDGSFFLYSKLTVDKSRWQQGNVFSCSVMHEALHNHYTQKSLSLSPGK
chain 2: EVQLVQSGAEVKKPGSSVKVSCKASGYTITDSNIHWVRQAPGQSLEWIGYIYPYNGGTDYNQKFKNRATLTVDNPTNTAYMELSSLRSEDTAFYYCVNGNPWLAYWGQGTLVTVSSASTKGPSVFPLAPSSKSTSGGTAALGCLVKDYFPEPVTVSWNSGALTSGVHTFPAVLQSSGLYSLSSVVTVPSSSLGTQTYICNVNHKPSNTKVDKRVEPKSCDKTHTCPPCPAPEFEGGPSVFLFPPKPKDTLMISRTPEVTCVVVDVSHEDPEVKFNWYVDGVEVHNAKTKPREEQYNSTYRVVSVLTVLHQDWLNGKEYKCKVSNKALPASIEKTISKAKGQPREPQVCTLPPSREEMTKNQVSLSCAVKGFYPSDIAVEWESNGQPENNYKTTPPVLDSDGSFFLVSKLTVDKSRWQQGNVFSCSVMHEALHNRFTQKSLSLSPGK
chain 3: DIQLTQSPSTLSASVGDRVTITCRASESLDNYGIRFLTWFQQKPGKAPKLLMYAASNQGSGVPSRFSGSGSGTEFTLTISSLQPDDFATYYCQQTKEVPWSFGQGTKVEVKRTVAAPSVFIFPPSDEQLKSGTASVVCLLNNFYPREAKVQWKVDNALQSGNSQESVTEQDSKDSTYSLSSTLTLSKADYEKHKVYACEVTHQGLSSPVTKSFNRGEC
As to B1, in the test with recombinant CD3 proteins [1], the Kd amounted to 69 nM, the koff came to 0.0189 s⁻¹ and the on-rate constant (kon) came to 274000 M⁻¹ s⁻¹.

B2: CD3 × CD33-BspAb122 (bispecific antibody)
chain 1: QTVVTQEPSFSVSPGGTVTLTCGLSSGSVSTSYYPSWYQQTPGQAPRTLIYSTNTRSSGVPDRFSGSILGNKAALTITGAQADDESDYYCVLYMGSGIWVFGCGTKLTVLGGGGSGGGGSGGGGSGGGGSEVQLVESGGGLVKPGGSLRLSCAASGFTVSNYSMNWVRQAPGKCLEWVSSISRSSSYIYYADSVKGRFTISRDNAKNSLFLQMNSLRAEDTAVYYCARERWELLYFDYWGQGTLVTVSSDKTHTCPPCPAPEFEGGPSVFLFPPKPKDTLMISRTPEVTCVVVDVSHEDPEVKFNWYVDGVEVHNAKTKPREEQYNSTYRVVSVLTVLHQDWLNGKEYKCKVSNKALPASIEKTISKAKGQPREPQVYTLPPCREEMTKNQVSLWCLVKGFYPSDIAVEWESNGQPENNYKTTPPVLDSDGSFFLYSKLTVDKSRWQQGNVFSCSVMHEALHNHYTQKSLSLSPGK
chain 2: EVQLVQSGAEVKKPGSSVKVSCKASGYTITDSNIHWVRQAPGQSLEWIGYIYPYNGGTDYNQKFKNRATLTVDNPTNTAYMELSSLRSEDTAFYYCVNGNPWLAYWGQGTLVTVSSASTKGPSVFPLAPSSKSTSGGTAALGCLVKDYFPEPVTVSWNSGALTSGVHTFPAVLQSSGLYSLSSVVTVPSSSLGTQTYICNVNHKPSNTKVDKRVEPKSCDKTHTCPPCPAPEFEGGPSVFLFPPKPKDTLMISRTPEVTCVVVDVSHEDPEVKFNWYVDGVEVHNAKTKPREEQYNSTYRVVSVLTVLHQDWLNGKEYKCKVSNKALPASIEKTISKAKGQPREPQVCTLPPSREEMTKNQVSLSCAVKGFYPSDIAVEWESNGQPENNYKTTPPVLDSDGSFFLVSKLTVDKSRWQQGNVFSCSVMHEALHNRFTQKSLSLSPGK
chain 3: DIQLTQSPSTLSASVGDRVTITCRASESLDNYGIRFLTWFQQKPGKAPKLLMYAASNQGSGVPSRFSGSGSGTEFTLTISSLQPDDFATYYCQQTKEVPWSFGQGTKVEVKRTVAAPSVFIFPPSDEQLKSGTASVVCLLNNFYPREAKVQWKVDNALQSGNSQESVTEQDSKDSTYSLSSTLTLSKADYEKHKVYACEVTHQGLSSPVTKSFNRGEC
Take B2: in the test with recombinant CD3 proteins [2], the Kd is below 0.001 nM, the koff was below 1e-07 s⁻¹ and the kon came out at 15400 M⁻¹ s⁻¹.

B3: CD3 × CD33-BspAb121 (bispecific antibody)
chain 1: QTVVTQEPSLTVSPGGTVTLTCASSTGAVTSGYYPNWFQQKPGQAPRALIYSTSNKHSWTPARFSGSLLGGKAALTLSGVQPEDEAEYYCLLYYGGAYVFGCGTKVTVLGGGGSGGGGSGGGGSGGGGSEVQLVESGGGLVKPGGSLRLSCAASGFTFSSYSMNWVRQAPGKCLEWVSSISRSGTYIYYADSVKGRFTISRDNAKNSLYLQMNSLRAEDTAVYYCARERWELLYFDYWGQGTLVTVSSDKTHTCPPCPAPEFEGGPSVFLFPPKPKDTLMISRTPEVTCVVVDVSHEDPEVKFNWYVDGVEVHNAKTKPREEQYNSTYRVVSVLTVLHQDWLNGKEYKCKVSNKALPASIEKTISKAKGQPREPQVYTLPPCREEMTKNQVSLWCLVKGFYPSDIAVEWESNGQPENNYKTTPPVLDSDGSFFLYSKLTVDKSRWQQGNVFSCSVMHEALHNHYTQKSLSLSPGK
chain 2: EVQLVQSGAEVKKPGSSVKVSCKASGYTITDSNIHWVRQAPGQSLEWIGYIYPYNGGTDYNQKFKNRATLTVDNPTNTAYMELSSLRSEDTAFYYCVNGNPWLAYWGQGTLVTVSSASTKGPSVFPLAPSSKSTSGGTAALGCLVKDYFPEPVTVSWNSGALTSGVHTFPAVLQSSGLYSLSSVVTVPSSSLGTQTYICNVNHKPSNTKVDKRVEPKSCDKTHTCPPCPAPEFEGGPSVFLFPPKPKDTLMISRTPEVTCVVVDVSHEDPEVKFNWYVDGVEVHNAKTKPREEQYNSTYRVVSVLTVLHQDWLNGKEYKCKVSNKALPASIEKTISKAKGQPREPQVCTLPPSREEMTKNQVSLSCAVKGFYPSDIAVEWESNGQPENNYKTTPPVLDSDGSFFLVSKLTVDKSRWQQGNVFSCSVMHEALHNRFTQKSLSLSPGK
chain 3: DIQLTQSPSTLSASVGDRVTITCRASESLDNYGIRFLTWFQQKPGKAPKLLMYAASNQGSGVPSRFSGSGSGTEFTLTISSLQPDDFATYYCQQTKEVPWSFGQGTKVEVKRTVAAPSVFIFPPSDEQLKSGTASVVCLLNNFYPREAKVQWKVDNALQSGNSQESVTEQDSKDSTYSLSSTLTLSKADYEKHKVYACEVTHQGLSSPVTKSFNRGEC
Consider B3, for which, in the test with recombinant CD3 proteins [3], the Kd worked out at 1210 nM, the koff came out at 0.0216 s⁻¹ and the kon came to 17900 M⁻¹ s⁻¹.
